Measured values taken from article PMC5324736.
Where two headings read alike, the source gives them in different places.

Key:
[1] = molecular target: eIF2•GDPNP•Met-tRNAi ternary complex; assay: native gel or EMSA
[2] = molecular target: eIF2•GDPNP•Met-tRNAi ternary complex; assay: native gel or EMSA; remark: listed apart in the source

Row | Kd [1] | Kd [2] | Substance
1 | 0.014 µM | < 0.001 µM | 40S ribosomal subunit, anion exchange column preparation (complex)
2 | 0.013 µM | < 0.001 µM | 40S ribosomal subunit, sucrose cushion preparation (complex)
